In paper PMC10636607 (Cell Reports, 2023):

Tests used:
[1] = target: biotinylated SARS-CoV-2 fusion peptide (SARS-CoV-2, biotin on the N-terminus); test: BLI; conditions: both partners purified
[2] = target: His6-tagged SARS-CoV-2 receptor-binding domain (SARS-CoV-2, UniProt P0DTC2); test: BLI; conditions: both partners purified

| Binder | binding result [1] | fold change in KD against the wild-type Fab [2] [fold] |
| --- | --- | --- |
| COV44-62 Fab VH R50W (Fab, V domains shown) VH: QMQLMQSGAEVKKPGASVTVSCKASGDTFSDYRIHWVRQAPGQGLEWMGWMNPKSGDTNFAQKFQGRVTMTRDMSINTAYMTLSGLTFDDTALYYCASLLIVGGFDPLDDFEVWGQGTMVTISS VL: QSALTQPPSASGSPGQSVTISCSGTSSDVGGYNFVSWYQHHPGKAPKILIYEVTKRPSGVPDRFSGSKSGNTASLTVSGLQAEDEADYYCSSYGGTNNLLFGGGTKLTVL | no binding (tested: 33 nM, 100 nM, and 300 nM) | – |
| GAR12 Fab VL D50K (Fab, V domains shown) VH: EVQLVQSGGGLVQPGGSLRLSCAASGFTFSSYAMSWVRQAPGKGLEWVLSISGSGGSTYYADSVKGRFTISIDNSKKTVYLQMNSLRAEDTAVYYCAKSGEQQLVQAEYFHHWGQGTLVTVSS VL: DIQMTQSPSTLSASVGDRVTITCRASQSIGRWLAWYQQKPGKAPKLLIYKASSLESGVPSRFSGSGFGTEFTLTISSLQPDDFATYYCQQCDSLLTFGGGTKLEIK | – | 44 |
